Source: article PMC9683001

Tested on: AMV coat protein (CP) (Alfalfa mosaic virus)
Assay: EMSA
Settings: 10 mM Na-phosphate pH 7.0, 1 mM EDTA, 5 U human placental RNase inhibitor, 10 uL, 30 min at room temperature; RNA preheated 65 C 5 min; 1.2% agarose gel in TAE

| Substance | Kd [µM] |
| --- | --- |
| 5'UTRΔ140 | 41.1 |
| 5'UTR-WT (AMV RNA3 5' UTR, plus strand) | 26.1 |
